Data: patent US20170355744A1 (published 2017)
Residue numbers refer to the chain shown, from its start. Values joined by “and” are separate entries in the source; they are usually repeats but may differ in a detail not shown here. Equal values may be shown once.

B1: Naglu-Helical-IGF-II (SEQ ID NO: 567) (enzyme)
chain: DEAREAAAVRALVARLLGPGPAADFSVSVERALAAKPGLDTYSLGGGGAARVRVRGSTGVAAAAGLHRYLRDFCGCHVAWSGSQLRLPRPLPAVPGELTEATPNRYRYYQNVCTQSYSFVWWDWARWEREIDWMALNGINLALAWSGQEAIWQRVYLALGLTQAEINEFFTGPAFLAWGRMGNLHTWDGPLPPSWHIKQLYLQHRVLDQMRSFGMTPVLPAFAGHVPEAVTRVFPQVNVTKMGSWGHFNCSYSCSFLLAPEDPIFPIIGSLFLRELIKEFGTDHIYGADTFNEMQPPSSEPSYLAAATTAVYEAMTAVDTEAVWLLQGWLFQHQPQFWGPAQIRAVLGAVPRGRLLVLDLFAESQPVYTRTASFQGQPFIWCMLHNFGGNHGLFGALEAVNGGPEAARLFPNSTMVGTGMAPEGISQNEVVYSLMAELGWRKDPVPDLAAWVTSFAARRYGVSHPDAGAAWRLLLRSVYNCSGEACRGHNRSPLVRRPSLQMNTSIWYNRSDVFEAWRLLLTSAPSLATSPAFRYDLLDLTRQAVQELVSLYYEEARSAYLSKELASLLRAGGVLAYELLPALDEVLASDSRFLLGSWLEQARAAAVSEAEADFYEQNSRYQLTLWGPEGNILDYANKQLAGLVANYYTPRWRLFLEALVDSVAQGIPFQQHQFDKNVFQLEQAFVLSKQRYPSQPRGDTVDLAKKIFLKYYPRWVAGSWGAPGGGSPAEAAAKEAAAKEAAAKEAAAKEAAAKAPSGGGGAPLCGGELVDTLQFVCGDRGFYFSRPASRVSARSRGIVEECCFRSCDLALLETYCATPAKSE
notes: also called Naglu fusion protein
B2: Naglu-(GGGGS)4GGGPS-IGF-II (SEQ ID NO: 568) (enzyme)
chain: DEAREAAAVRALVARLLGPGPAADFSVSVERALAAKPGLDTYSLGGGGAARVRVRGSTGVAAAAGLHRYLRDFCGCHVAWSGSQLRLPRPLPAVPGELTEATPNRYRYYQNVCTQSYSFVWWDWARWEREIDWMALNGINLALAWSGQEAIWQRVYLALGLTQAEINEFFTGPAFLAWGRMGNLHTWDGPLPPSWHIKQLYLQHRVLDQMRSFGMTPVLPAFAGHVPEAVTRVFPQVNVTKMGSWGHFNCSYSCSFLLAPEDPIFPIIGSLFLRELIKEFGTDHIYGADTFNEMQPPSSEPSYLAAATTAVYEAMTAVDTEAVWLLQGWLFQHQPQFWGPAQIRAVLGAVPRGRLLVLDLFAESQPVYTRTASFQGQPFIWCMLHNFGGNHGLFGALEAVNGGPEAARLFPNSTMVGTGMAPEGISQNEVVYSLMAELGWRKDPVPDLAAWVTSFAARRYGVSHPDAGAAWRLLLRSVYNCSGEACRGHNRSPLVRRPSLQMNTSIWYNRSDVFEAWRLLLTSAPSLATSPAFRYDLLDLTRQAVQELVSLYYEEARSAYLSKELASLLRAGGVLAYELLPALDEVLASDSRFLLGSWLEQARAAAVSEAEADFYEQNSRYQLTLWGPEGNILDYANKQLAGLVANYYTPRWRLFLEALVDSVAQGIPFQQHQFDKNVFQLEQAFVLSKQRYPSQPRGDTVDLAKKIFLKYYPRWVAGSWGGGGSGGGGSGGGGSGGGGSGGGPSLCGGELVDTLQFVCGDRGFYFSRPASRVSARSRGIVEECCFRSCDLALLETYCATPAKSE
notes: The construct encodes full-length Naglu 1-743 with its signal peptide; also called Naglu fusion protein; GILT-tagged Naglu-IGF-II fusion protein
B3: Naglu-(GGGGA)4GGGPS-IGF-II (SEQ ID NO: 569) (enzyme)
chain: B2 chain with S725A, S730A, S735A, S740A
notes: as for B1
B4: Naglu-XTEN-IGF-II (SEQ ID NO: 565) (enzyme)
chain: DEAREAAAVRALVARLLGPGPAADFSVSVERALAAKPGLDTYSLGGGGAARVRVRGSTGVAAAAGLHRYLRDFCGCHVAWSGSQLRLPRPLPAVPGELTEATPNRYRYYQNVCTQSYSFVWWDWARWEREIDWMALNGINLALAWSGQEAIWQRVYLALGLTQAEINEFFTGPAFLAWGRMGNLHTWDGPLPPSWHIKQLYLQHRVLDQMRSFGMTPVLPAFAGHVPEAVTRVFPQVNVTKMGSWGHFNCSYSCSFLLAPEDPIFPIIGSLFLRELIKEFGTDHIYGADTFNEMQPPSSEPSYLAAATTAVYEAMTAVDTEAVWLLQGWLFQHQPQFWGPAQIRAVLGAVPRGRLLVLDLFAESQPVYTRTASFQGQPFIWCMLHNFGGNHGLFGALEAVNGGPEAARLFPNSTMVGTGMAPEGISQNEVVYSLMAELGWRKDPVPDLAAWVTSFAARRYGVSHPDAGAAWRLLLRSVYNCSGEACRGHNRSPLVRRPSLQMNTSIWYNRSDVFEAWRLLLTSAPSLATSPAFRYDLLDLTRQAVQELVSLYYEEARSAYLSKELASLLRAGGVLAYELLPALDEVLASDSRFLLGSWLEQARAAAVSEAEADFYEQNSRYQLTLWGPEGNILDYANKQLAGLVANYYTPRWRLFLEALVDSVAQGIPFQQHQFDKNVFQLEQAFVLSKQRYPSQPRGDTVDLAKKIFLKYYPRWVAGSWGAPGGSPAGSPTSTEEGTSESATPESGPGTSTEPSEGSAPGSPAGSPTSTGPSGAPLCGGELVDTLQFVCGDRGFYFSRPASRVSARSRGIVEECCFRSCDLALLETYCATPAKSE
notes: as for B1
B5: Naglu-Rigid-IGF-II (SEQ ID NO: 566) (enzyme)
chain: DEAREAAAVRALVARLLGPGPAADFSVSVERALAAKPGLDTYSLGGGGAARVRVRGSTGVAAAAGLHRYLRDFCGCHVAWSGSQLRLPRPLPAVPGELTEATPNRYRYYQNVCTQSYSFVWWDWARWEREIDWMALNGINLALAWSGQEAIWQRVYLALGLTQAEINEFFTGPAFLAWGRMGNLHTWDGPLPPSWHIKQLYLQHRVLDQMRSFGMTPVLPAFAGHVPEAVTRVFPQVNVTKMGSWGHFNCSYSCSFLLAPEDPIFPIIGSLFLRELIKEFGTDHIYGADTFNEMQPPSSEPSYLAAATTAVYEAMTAVDTEAVWLLQGWLFQHQPQFWGPAQIRAVLGAVPRGRLLVLDLFAESQPVYTRTASFQGQPFIWCMLHNFGGNHGLFGALEAVNGGPEAARLFPNSTMVGTGMAPEGISQNEVVYSLMAELGWRKDPVPDLAAWVTSFAARRYGVSHPDAGAAWRLLLRSVYNCSGEACRGHNRSPLVRRPSLQMNTSIWYNRSDVFEAWRLLLTSAPSLATSPAFRYDLLDLTRQAVQELVSLYYEEARSAYLSKELASLLRAGGVLAYELLPALDEVLASDSRFLLGSWLEQARAAAVSEAEADFYEQNSRYQLTLWGPEGNILDYANKQLAGLVANYYTPRWRLFLEALVDSVAQGIPFQQHQFDKNVFQLEQAFVLSKQRYPSQPRGDTVDLAKKIFLKYYPRWVAGSWGAPGGGSPAPAPTPAPAPTPAPAGGGPSGAPLCGGELVDTLQFVCGDRGFYFSRPASRVSARSRGIVEECCFRSCDLALLETYCATPAKSE
notes: as for B1

The binders below were run against T1, fragment of the IGFIIR involved with IGF-II binding (domains 10-13, named protein 1288) (UniProt P11717 1367-1989) (assay: IGF2R competitive binding assay, displacement of 8 nM biotinylated IGF-II from plate-coated IGFIIR domains 10-13).
T1 construct: domain: domains 10-13; Coated on the plate at 0.5 ug/well; also called IGF2R
T1 sequence (P11717 1367-1989 limits assumed): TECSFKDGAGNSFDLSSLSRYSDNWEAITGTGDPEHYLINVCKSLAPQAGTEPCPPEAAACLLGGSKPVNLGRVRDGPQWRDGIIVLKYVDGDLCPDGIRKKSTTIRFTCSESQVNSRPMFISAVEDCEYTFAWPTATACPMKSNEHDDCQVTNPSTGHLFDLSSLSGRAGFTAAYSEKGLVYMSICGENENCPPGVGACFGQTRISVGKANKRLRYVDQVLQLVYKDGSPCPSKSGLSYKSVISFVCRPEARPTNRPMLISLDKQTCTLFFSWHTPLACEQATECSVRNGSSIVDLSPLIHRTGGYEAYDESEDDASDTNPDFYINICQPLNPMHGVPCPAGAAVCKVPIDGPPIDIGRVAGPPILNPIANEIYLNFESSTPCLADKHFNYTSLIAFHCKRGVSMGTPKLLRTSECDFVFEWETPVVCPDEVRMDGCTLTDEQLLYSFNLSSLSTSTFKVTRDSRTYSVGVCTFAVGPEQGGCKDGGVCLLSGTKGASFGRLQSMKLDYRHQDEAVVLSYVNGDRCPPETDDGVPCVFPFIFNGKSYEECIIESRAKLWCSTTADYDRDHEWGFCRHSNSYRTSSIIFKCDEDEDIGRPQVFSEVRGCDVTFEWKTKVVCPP
Description: To measure the ability of the Naglu fusion protein constructs to bind to the IGF-II receptor a competitive binding assay is carried out. A fragment of the IGFIIR involved with IGF-II binding (domains 10-13, named protein 1288) is coated onto 96-well plates. Biotinylated IGF-II is incubated with the receptor in the presence of increasing amounts of competitors: either control IGF-II (non-biotinylated), or fusion protein sample (containing an IGF-II-derived GILT epitope tag). Receptor-bound biotinylated IGF-II is detected with streptavidin conjugated to horseradish peroxidase (HRP) and a chemiluminescent HRP substrate. The ability of the fusion protein to inhibit binding of biotinylated IGF-II to the IGFIIR is calculated from inhibition curves and reported as an IC₅₀ value (concentration required to achieve 50% binding inhibition).
For the assay, IGFIIR is coated in a white Reacti-bind plate (Pierce, Cat#437111) at 0.5 μg/well in a volume of 100 μl (69.6 nM/per well) in coating buffer. The plate is sealed and incubated overnight at room temperature. The plate is then washed 3× with wash buffer, blocked with blocking buffer and then washed again 3× with wash buffer (300 μl/well).
B1 was tested, and the IC50 was 250 pM.
In the case of B2, the IC50 is reported as 270 pM and 230 pM.
Work on B3 yielded an IC50 of 360 pM.
For B4, the IC50 was 240 pM.
In the case of B5, the IC50 is reported as 230 pM.

What follows are binders tested against T2, CI-MPR receptor on human MPS IIIB fibroblasts (human), P11717 (assay: cell-based or functional assay).
T2 sequence (P11717 41-2491): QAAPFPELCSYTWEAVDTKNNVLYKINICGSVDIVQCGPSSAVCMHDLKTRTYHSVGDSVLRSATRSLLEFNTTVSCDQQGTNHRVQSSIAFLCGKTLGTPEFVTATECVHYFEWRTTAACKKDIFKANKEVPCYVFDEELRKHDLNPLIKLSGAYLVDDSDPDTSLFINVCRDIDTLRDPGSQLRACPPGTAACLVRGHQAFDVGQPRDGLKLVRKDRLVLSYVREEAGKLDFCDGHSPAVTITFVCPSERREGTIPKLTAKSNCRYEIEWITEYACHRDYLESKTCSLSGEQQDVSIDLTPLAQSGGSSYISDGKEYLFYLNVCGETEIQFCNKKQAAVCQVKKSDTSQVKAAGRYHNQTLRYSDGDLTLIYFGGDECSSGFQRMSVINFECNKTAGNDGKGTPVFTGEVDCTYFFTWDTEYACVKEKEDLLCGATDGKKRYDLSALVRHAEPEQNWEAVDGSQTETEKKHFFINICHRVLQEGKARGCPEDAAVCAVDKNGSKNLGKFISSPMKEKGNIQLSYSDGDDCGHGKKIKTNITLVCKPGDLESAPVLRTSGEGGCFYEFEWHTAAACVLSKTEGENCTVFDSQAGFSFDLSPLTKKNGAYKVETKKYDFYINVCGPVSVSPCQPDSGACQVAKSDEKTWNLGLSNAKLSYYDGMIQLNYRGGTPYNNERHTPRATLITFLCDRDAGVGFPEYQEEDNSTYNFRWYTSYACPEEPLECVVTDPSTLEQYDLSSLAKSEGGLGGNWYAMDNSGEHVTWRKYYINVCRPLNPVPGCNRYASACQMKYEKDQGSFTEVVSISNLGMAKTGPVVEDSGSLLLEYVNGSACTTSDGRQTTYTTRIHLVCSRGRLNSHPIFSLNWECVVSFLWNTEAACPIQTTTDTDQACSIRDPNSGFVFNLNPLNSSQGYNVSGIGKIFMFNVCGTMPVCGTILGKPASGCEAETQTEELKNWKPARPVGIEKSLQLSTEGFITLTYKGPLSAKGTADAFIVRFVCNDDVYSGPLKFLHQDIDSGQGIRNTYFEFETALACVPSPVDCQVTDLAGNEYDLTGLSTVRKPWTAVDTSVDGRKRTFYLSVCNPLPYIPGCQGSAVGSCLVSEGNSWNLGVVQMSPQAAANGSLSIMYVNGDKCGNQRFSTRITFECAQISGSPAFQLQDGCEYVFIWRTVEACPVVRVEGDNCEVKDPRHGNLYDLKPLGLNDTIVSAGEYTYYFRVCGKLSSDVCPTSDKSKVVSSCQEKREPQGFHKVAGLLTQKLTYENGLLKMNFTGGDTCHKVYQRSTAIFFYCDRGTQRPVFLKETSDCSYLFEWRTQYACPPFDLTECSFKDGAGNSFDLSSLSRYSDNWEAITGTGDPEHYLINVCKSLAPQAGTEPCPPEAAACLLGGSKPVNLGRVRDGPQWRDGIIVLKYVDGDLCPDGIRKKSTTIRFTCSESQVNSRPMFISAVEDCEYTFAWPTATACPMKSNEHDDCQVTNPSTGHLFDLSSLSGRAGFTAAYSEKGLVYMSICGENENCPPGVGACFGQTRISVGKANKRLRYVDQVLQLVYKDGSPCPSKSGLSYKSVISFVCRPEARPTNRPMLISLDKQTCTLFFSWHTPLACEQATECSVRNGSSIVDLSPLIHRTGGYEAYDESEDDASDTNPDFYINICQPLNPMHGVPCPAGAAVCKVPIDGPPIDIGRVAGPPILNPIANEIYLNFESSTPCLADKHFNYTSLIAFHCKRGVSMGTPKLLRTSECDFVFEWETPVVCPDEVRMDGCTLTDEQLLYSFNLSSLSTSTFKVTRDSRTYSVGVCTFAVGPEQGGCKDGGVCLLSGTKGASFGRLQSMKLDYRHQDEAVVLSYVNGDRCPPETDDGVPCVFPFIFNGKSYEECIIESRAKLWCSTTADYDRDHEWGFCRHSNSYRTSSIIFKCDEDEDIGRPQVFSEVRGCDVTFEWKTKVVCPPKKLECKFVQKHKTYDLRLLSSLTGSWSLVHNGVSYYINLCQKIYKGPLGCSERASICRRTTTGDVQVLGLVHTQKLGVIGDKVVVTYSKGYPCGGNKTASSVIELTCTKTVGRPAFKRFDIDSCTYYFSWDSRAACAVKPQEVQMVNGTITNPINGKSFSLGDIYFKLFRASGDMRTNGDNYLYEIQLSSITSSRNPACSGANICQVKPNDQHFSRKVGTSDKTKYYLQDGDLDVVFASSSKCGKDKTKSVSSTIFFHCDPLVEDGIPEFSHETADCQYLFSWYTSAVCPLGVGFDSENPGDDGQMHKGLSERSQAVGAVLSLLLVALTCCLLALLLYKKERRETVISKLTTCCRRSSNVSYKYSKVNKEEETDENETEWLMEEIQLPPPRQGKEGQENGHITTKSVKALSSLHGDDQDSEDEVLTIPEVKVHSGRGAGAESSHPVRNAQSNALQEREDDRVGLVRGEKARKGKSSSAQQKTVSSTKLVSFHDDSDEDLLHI
For B2, the Kuptake was 7 to 9 nM.

Molecular target: T2, CI-MPR receptor on human MPS IIIB …
Experiment: cell-based or functional assay
Remark: another data set of the same source
B1 showed a Kuptake of 2.3 nM.
B2 gave a Kuptake of 5.4 nM.
In the case of B3, the Kuptake is reported as 6.3 nM.
B4 gave a Kuptake of 3.7 nM.
B5 gave a Kuptake of 2.4 nM.
